{"source": "the nanobody polyreactivity screen of Harvey et al. (2022)", "data": [{"experiment": "yeast display, Sf9 membrane polyspecificity reagent, FACS + sequencing; frameworks hold sequencing errors", "method_in_brief": "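A synthetic nanobody library was expressed on Saccharomyces cerevisiae BJ5465 by galactose induction for 36–48 hours. The library was stained for 1 hour at 4 °C with 10% biotinylated, detergent-solubilized Sf9 membrane reagent and enriched with streptavidin microbeads before FACS. Low and high (top ~1%) gates were set on anti-HA fluorescence for expression and streptavidin fluorescence for reagent binding, and each polyreactivity label reflects the gate of origin.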", "values": [{"sequence": "QVQLVESGGGLVQAGGSLRLSCAASGRIFKYYGMGWYRQAPGKESELVAAITRGDSTNYADSVKGRFTISRDNAKNTVYLQMNSLKPEDTAVYYCNVGTRRGYDYWGQGTQVTVSS", "polyreactivity (PSR sort gate)": "high polyreactivity"}, {"sequence": "QVQLVESVGGLVQAGGSLRLSCAASGNTFRYNTMGWYRQAPGKERELVAVITRRGSSTYYADSVKGRFTISRDNAKNTVYLQMNSLKPEDTAVYYCAAGYGRYGYVYSGYGKWEDYWGQGTQVTVSS", "polyreactivity (PSR sort gate)": "high polyreactivity"}, {"sequence": "QVQLQESGGGLVQAGGSLRLSCAASGYISHADEMGWYRQAPGKVHELVASISNGGSTNYADSVKGRFTISRDNAKNTVYLQMNSLKSEDTAVYYCAAWTGQVDIHYYWGQGTQVTVSS", "polyreactivity (PSR sort gate)": "low polyreactivity"}, {"sequence": "QVQLVESGGGLVQAGGSLRLSCAASGLTFAVYAMGWYRQAPGKERELVAAITYSGSRTYYADSVKGRFTISRDNAKNTVYLQMNSLKPEDTAVYYCNALYRRDIKFYYWGQGTQVTVSS", "polyreactivity (PSR sort gate)": "high polyreactivity"}, {"sequence": "QVQLVESGGGLVQAGGSLRLSCAASGSIFSRYAMGWYRQAPGNERELVAAITSGGSTKYADSVKGRFTISRDNAKNTVYLQMNSLKPEDTAVYYCNADRRFRKYPFGYWGQGTQVTVSS", "polyreactivity (PSR sort gate)": "high polyreactivity"}, {"sequence": "QGQLVESGGGLVQAGGSLRLSCPASGRTFYGYAMGWYRQAPGKERELVAAITSSGGSTYYADSVKGRFTISRDHAKNTVYLQMNSLIPEDTAVYYCAAPSSRGQGRNFDYWGQGSQVTVSS", "polyreactivity (PSR sort gate)": "high polyreactivity"}, {"sequence": "QVQLVESGGGLVQAGRSLRLSCAASGSIFAWYGMGWYRQAPGKERELFAAISTDGSTNYADSVKGRFTISRDNAKNSVYLQMISLKREDTAVYYCAKKSSLYYPERFDYWGQGTQGTVSS", "polyreactivity (PSR sort gate)": "low polyreactivity"}, {"sequence": "QVQLVESGGGLVQAGGSLRLSCAASGIIFGRNAMGWYRPAPGKERELVAVITGGGGRTYYADSVKGRFTISRDNAKKTVYLQMNSLKPEDTAVYYCNKDYRRNLAYFKEPGVPVDYWGQGTQVTVSS", "polyreactivity (PSR sort gate)": "low polyreactivity"}, {"sequence": "QVQLVESGAGLVQEGGSLRLSCAASGSIFVGNAMGWYRQAPGKERELVATISWSGGSTYYADSVKGRFTISRDNAKNTVYLQMNSLKPEDTAVYYCAKTPYRRYRYGGYTYRTYDYWGQGTQVTVSS", "polyreactivity (PSR sort gate)": "low polyreactivity"}, {"sequence": "QVQLVESGGGLVQAGGSLRLSCAASGSIFRRNAMGWYRQAPGKERELVAAITWRGDRTYYADSVKGRFTISRDNAKNTVYLQMNSLKPEDTAVYYCNKLGRIQYDYWGQGTQVTVSS", "polyreactivity (PSR sort gate)": "high polyreactivity"}, {"sequence": "QVQLVESGGGLVQAGGSLRLSCAASGSTFEANAMGRYRQAPGKERELVAVITWTGGSTYYADSVKGRFTISRDNAKNTVYLQMNSLKPEDTAVYYCAADGVVPGRFFWPAHEYDYWGQGTQVTVSS", "polyreactivity (PSR sort gate)": "low polyreactivity"}, {"sequence": "QVQLVESGGGLVQAGGSHRLSCAASGSISRRYAMGWYRQAPGKERELVAAINQSGGRTYYADSVKGRFTISRDNAKNTVYLQMNSLKPEDTAVYYCAARLSGYDYWGQGTQVTVSS", "polyreactivity (PSR sort gate)": "high polyreactivity"}, {"sequence": "QVHLVESGAGLVQAGGSLRISCAASGIIFRLYGLGWYRQAPGKERELVAGINTGGSTSADSVKGRFTISRDNAKNTVYLQMNSLKPEDTAVYYCARDPGYYHPWYRYDYWGQGTQVTVSS", "polyreactivity (PSR sort gate)": "low polyreactivity"}, {"sequence": "QVQLLESGGGLVQAGGSLRLSCAASGSTFVGYAMGWYRQAPGKERELVAAISGSGTSTYYADSVKGRFTISRDNAKNTVYLQMNSLKPEDTAVYYCNADPIFVYSSYNYWGQGTQVTVSS", "polyreactivity (PSR sort gate)": "low polyreactivity"}, {"sequence": "QVQLVESGGGLVQAGGSLRLSCAASGNIFARYAMGWYRQAPGKEREMVARISESGGRTYYADSVKARFTISRDNAKNTVYLQMNSLKPEDTAVYYCADRRYIQYGFKFYYWGQGTQLTVSS", "polyreactivity (PSR sort gate)": "high polyreactivity"}, {"sequence": "QVQLVESGVGLVQAGGSLRLSCAASGSIFKYYAMGWYRQAPGKERELVAAISSNGGRTYYADSVKGRFTISRDNAKNTDYLQMNSLKPEDTAVYYCARRYRRTGESEYDYWGQGTQVTVSS", "polyreactivity (PSR sort gate)": "high polyreactivity"}, {"sequence": "QVQLVESGGGLVQAGGSLRLSCAASGRIFTPYAMGWYRQAPGKERELVAAISSSGGSTYYADSVKGRFTISRDNAKNTVYLQMNSLKPEDTAVYYCAAVHYRHVRYDYWGQATQVTVSS", "polyreactivity (PSR sort gate)": "high polyreactivity"}, {"sequence": "QVQLVESGGGLVQAGGSLRLSCAASGFNFLGNAMGWYRQAPGKERELVAAISSGGSTYADSVKGRFTISRDNAKNTVYLQMISLKPEDTAVYYCAVDRAFRAQNYHEYEYWGQGTQVTVSS", "polyreactivity (PSR sort gate)": "low polyreactivity"}, {"sequence": "QVQLVESGGGLVQAGGSLRLSCAASGSTFTYYTMGWYRQAPVKERELVAAISTSGGRTYDADSVKGRFTISRDYAKIPVFLQMNSLKPEDTAVYYCAAYSRTYDREFDYWGQGTQVTVSS", "polyreactivity (PSR sort gate)": "high polyreactivity"}, {"sequence": "QVQLVESGGGLVKAGGSLRLSCGASGSIFDFYVMGWYRQAPGKERELVGAISSGGSTYYADSVKGRFTISRDNAKHTVYVQMNSLKPADTAVYYCAAYPEYVSGAWYDYWGQGTQVTVSS", "polyreactivity (PSR sort gate)": "low polyreactivity"}, {"sequence": "QVQLVESGGGLVQAGGSLRLSCAASGRIFPYNAMGWSRQAPGKERELVASITSGGGSTYYADSVKGRFTISRDNAKNTVYLQMKSLKPEDTAVYYCSTRGYAWSSDKFGYWGQGTQVTVSS", "polyreactivity (PSR sort gate)": "high polyreactivity"}, {"sequence": "QVQLVESGGGLVQAGGSLRLSCAASGRIFYYNTMGWYRQAPGKERELVAAITRSGGSTYYADSVKGRFTISRDNAKNTVYLQMNSLKPEDTAVYYCAARSTHPGSVGYWGQGTQVTVSS", "polyreactivity (PSR sort gate)": "high polyreactivity"}, {"sequence": "QVQLVESGGGLVQAGGSLRLSCAASGGTFDWNTMGWYRQAPGKERELVASITSGGRTNYAASVKGRFTISRDNAMNPVYLQLNSLKPEDTAVYYCANYPRSAYPWQTWVGQKFDYWGQGTQVTVSS", "polyreactivity (PSR sort gate)": "low polyreactivity"}, {"sequence": "QVQLVESGGGLVQAGGSLRLICAASGFTFYRYAMGWYRPAPGKERELVAAITNIAGSTYYADSVKGRFTISRDNAKNTLYLQMNSLKPEDTAVYYCNANRLRRYDYWGQGTQVTVSS", "polyreactivity (PSR sort gate)": "high polyreactivity"}, {"sequence": "QVHLVESGGGLVQAGGSLRLRCAASGLTSTNNAMGWYRQAPGKERELVAAITSGSTTNYADSVKGRFTISRDNAKNTVYLQMNSLNPEDTAVYYCAAQYGVWWRGYYYPEYDYWGEGTQVTVSS", "polyreactivity (PSR sort gate)": "low polyreactivity"}, {"sequence": "QVQLVESWGGLVQAGGSLRLSCAATGVTFKFYAMGWYRQAPGKERELVAAISWSGTSTYYADSVKGRFTISRDNAKNTVYLQMNSLKPEDTAVYYCAADKRLRGHGYDYWGQGTQVTVSS", "polyreactivity (PSR sort gate)": "high polyreactivity"}, {"sequence": "QVQIVESGGGLVQAGGSLRLSCAASGRILKYYAMGWYRPAPGKEREFVASIRYSGGSTYADSVKGRFTISRDNAKNTVYLQMNSLKPEDTAGYYCNAQLSWTKFAYRGMDYGGQGTQVTVSS", "polyreactivity (PSR sort gate)": "high polyreactivity"}, {"sequence": "HVQLVESGGGLVQAGGSLRLSCAASGRTFSFYVMGWYRQAPGKERELVAAISSSGGRTYYADSVKGRFTISRDNAKNTVYVQMNSLKPEDTAVYYCAVDQPFVSWRLFTQPDSYPRDYWGQGTQVTVSS", "polyreactivity (PSR sort gate)": "low polyreactivity"}, {"sequence": "QVQLVESGGGLVQAGCSLRLSCAASGRTLKYNAMGGYIQAPGKERELVAAISRSGGRLYYADSVKGRFTMSRDNAKNTVYLQMNSLKPEDTAVYYCAKDRSGSYYNFPEYDYWGQGTQVTVSS", "polyreactivity (PSR sort gate)": "high polyreactivity"}, {"sequence": "QVQLVESGGGLVQAGGSLRLSCAASGRTFRLYAMGWYRQAPGKERELVATITSSGGSTYYADSVKGRFTISRDKAKNTVYLQMNSLKPEDTAVYYCAAQTYYSYDYWGQGTQVTVSS", "polyreactivity (PSR sort gate)": "low polyreactivity"}, {"sequence": "QVQLVESGGGLVQAGGSLRLSCAASGNIFFGYAMGWYRQAPGKEREYVATITKIGGSTYYADSVKGRFTISRDNAKNTVYLQMNSLKPEDTAVYYCAARLGHSVNPGGERWDVEYWGQGTQVTVSS", "polyreactivity (PSR sort gate)": "low polyreactivity"}, {"sequence": "QVQLVESGGVLVQAGGSLRLSCAASGRIFTGNAMGWYRQAPGKETELVAAISRRGTRTYYADSVKGRFTISRDNAKNTVYLQMNSLKPEDTAVYYCATVLYKAYNDYGYWGQGTQVTVSS", "polyreactivity (PSR sort gate)": "high polyreactivity"}, {"sequence": "QVQLVESGGGLVQAGGSLRLSCAASGRTIWNYALGWYRQGPGKERELVAVIRFSDGSTYYADSVKGRFTISRDNAKNTVYLQMNSLKPEDTAVYYCAAKGPRLWGSGFDYWGQGTQVTVSS", "polyreactivity (PSR sort gate)": "low polyreactivity"}, {"sequence": "QVQLVESGGGLVQAGGSLRLSCAASGSTLYIYAKGWYRQAPGKETEFDADFSWSGGSTYYADSVKGRFTISRDYASNTVYLQMNSQKPEDTAVYNCNGDFTDSYLSRYDYWGQGTQVTVSS", "polyreactivity (PSR sort gate)": "low polyreactivity"}, {"sequence": "QVQLVESGGGLVQAGGSLRLSCAASGSILQVYAMGWYRQAPGKERELFADINYTTGSTYYADSVKGRFTISRDNAKNTVYLQMNSLKPEDTAVYYCAKDFGFQSDSWGQGTQVTVSS", "polyreactivity (PSR sort gate)": "low polyreactivity"}, {"sequence": "QVQLVESGGGLVQAGGSLRLSCAASGFTFRSYAMGWYRQAPGKERELVASISPGATTKYADSVKGRFTISRDNAKNTVYLQMNSLKPEDTAVYYYEVYQILVRRLSYWGQGTQVTVSC", "polyreactivity (PSR sort gate)": "high polyreactivity"}, {"sequence": "QVQLVESGGGLVQAGGSLRLSCAASGSIFADYAMGWSRQAPGKEREFVAAITRSGTSTYYADSVKGRFTISRDNAKNTVYLQMNSLKPEDTAVYYCAKTEVLLYLYTLDYWGQGTQVTVSS", "polyreactivity (PSR sort gate)": "low polyreactivity"}, {"sequence": "QVQLVESGGGLVQAGGSLRLSCAASGRTFWTYTMGWYRQAPGKEREFVAAITFGDGSTSYADSVKGRFTISRDNAKNTVYFQMNSLKPEDTAVYYCAKRWRRRFVDVWSLYDYWGQGTQVTVSS", "polyreactivity (PSR sort gate)": "low polyreactivity"}, {"sequence": "QDQLVESGGGLVQAGGSLRLSCAASGFTFRDYTRGWYRQAPGKERELVAAISLSGGSTYYADSVKGRFTISRDNAKNTVYFQMNSLKPEDTAVYYCAAGYLLWRTWDYGAGHNFWGQGTQVTVSS", "polyreactivity (PSR sort gate)": "high polyreactivity"}, {"sequence": "QVQLVESGGGLLQAGGSLRLSCAASGITFYYNTMGWYRQAPGKERELVASISGGCSTYYADSVKGRFTISRDNAKNTVFLQMKSLIPEDTAVYYCNAQGSLFRGWFDYDYWGQGTQVTVSS", "polyreactivity (PSR sort gate)": "low polyreactivity"}, {"sequence": "QDQLVESGGVLVQAGGSLRLSCAASGSIFGYYAMGWYRQAPGKERELVARISYSGGTTYYADSVKGRFTNSRDNAKNTVYLQMNSQIPEDTAVYYCNARIPYSWRYGYWGQGTQVTVSS", "polyreactivity (PSR sort gate)": "high polyreactivity"}, {"sequence": "QVQLVESGGGLVQAGGSLRLSCAASGFIFPYYAMGWYRQAPGKERELVAAITSSGGSTYYADSVKGRFTISRDTAKNTVYLQMTSLKPEDNAVYYCNAYVRRTRDYDYWGQGTQVTVSS", "polyreactivity (PSR sort gate)": "high polyreactivity"}, {"sequence": "QVQLVESGGGVVQAGGSLRLSCAASGRIFYYNARGWYRQAPGKERELVAVISRNGGRTYYADSVKGRFTISRDNAKITVYLQMNSLKPEDTAVYYCAARSAGDRYDYWGQGTQVTVSS", "polyreactivity (PSR sort gate)": "high polyreactivity"}]}]}
